This assay deals with human pluripotent stem cells provided at high cell density. Kind of assay: Hematopoietic cell formation in high cell density differentiation culture. In kind it is cell-based. The settings on record: with 50 ng/ml BMP4. As to the method: FIGS. 1A-1F concern hematopoietic cell differentiation in accord with the invention. […] Cells in high cell density methods of the experiments depicted in this figure were plated at 1.1×10^5 cells/cm^2. Cells in low cell density methods of the experiments depicted in this figure were plated at 1.8×10^4 cells/cm^2. The photographs of FIG. 1B show cell morphology of cells of each culture at day 10. […] The hematopoietic cells could be cryopreserved at day 10 (90% FBS+10% DMSO) and hemangioblasts can be cryopreserved at day 6.
FIG. 2A-2D show Notch and YAP signaling in the low and high density cell cultures. FIGS. 2A-2B show immunostaining of YAP and NICD1 (Notch intra-cellular domain). […] Cells cultured at high density were treated with or without 10 μM DAPT (a Notch inhibitor) from day 2-10.
FIGS. 3A-3E show BMP4 signaling in the low and high density cell cultures. […] Cells were cultured at high density with or without 50 ng/ml BMP4. […] Cells were cultured at low density with or without LDN (a BMP signaling inhibitor).
Cell-cell contact regulates arterial endothelial cells and hemangioblast cell fate determination—Endothelial-to-hematopoietic stem cell transition occurs in aorta-gonad-mesonephros region. We therefore investigated whether human pluripotent stem cell-derived arterial endothelial cells can be reprogrammed into hematopoietic stem cells. […]

Data on one molecule can be found in patent US12497593B2, “Generation of hematopoietic progenitor cells from human pluripotent stem cells” (Wisconsin Alumni Research Foundation, priority 2018, dated 2025).

B1: BMP4: Bone Morphogenetic Protein 4, added at 50 ng/ml to high density culture (protein, UniProt P12644 293-408, looked up)
Bone morphogenetic protein 4: SPKHHSQRARKKNKNCRRHSLYVDFSDVGWNDWIVAPPGYQAFYCHGDCPFPLADHLNSTNHAIVQTLVNSVNSSIPKACCVPTELSAISMLYLDEYDKVVLKNYQEMVVEGCGCR
For B1, the “hematopoiesis (total hematopoietic cell number, cell morphology at day 10)” value is “promoted hematopoiesis”.
